# Assay results: the DeepSol protein solubility set
# Assay: soluble on expression in E. coli; label from the status in PepcDB or PDB records
row,Sequence,soluble on expression in E. coli
1,MSLKSKPVFRLVVAATGLCALPTWADGWPSWSPETAVVPYYFVSDSMGNTLGVAGLAKHVGQANASVLGTALYSDKGSYVTYLSATNYQVGDFWLLGAESYQGKFVDYDYYLGANASNDSTAADRTIATGKESITRFSFRYIVPWGHAAFRGARAALEPTRQIKGFSPDRSGITTIEFQPFHTSREINAIAGQDSDSSGLSLKLDWDNRNDVRNPTQGFRTRLDITYADENWGNDSDWLKYEYSSSGFWNLGGVDDLLDQQVFAFNFYIADTPTWNNCNTQTCQRPPEFDQVSLGGLYRLRSFSSGRFHGKSAINYSAEYRVLPKWQPLDDIPVLNIYDIPWWQWVAFVDMGRVSDESSFSELHSDMQWSAGGAVRFQVEGIVVRAEMAWGSEESLFRVMVNQEGHHHHHH,not soluble
2,VQLVRLLEEKIKSLQIEIENLRKELNYYKAEMEKMLSPPLIEAVVLDVLPDGRVLVRSSSGPNLVVNIASHIDQKLIKPGISVALNQRGSTILEVLPQKEDPIVKTMEIIERPN,not soluble
3,MAHHHHHHMGFSLLHPLPSAIHAGSNSSRLAVQRNPCRRSTEWCHGGSSGKQKKQRHCRGSEAGRPSGLPPNPRAPPPHHHRSAEGPRRPARHRRRHRRCTEDRPSSKPPAAHPRCRWARSPRRLSEHLGRLPLLGRRILLGCSQVDILRWGAAAGINALRNGDGCPLAILVQ,not soluble
4,AHHHHHHGSKPKVFITRAIPENGINMLEEEFEVEVWEEEREIPREKLLEKVKDVDALVTMLSERIDQEVFENAPRLRIVANYAVGYDNIDVEEATRRGIYVTNTPDVLTNATADHAFALLLATARHVVKGDKFVRSGEWKRKGIAWHPKWFLGYELYGKTIGIVGFGRIGQAIARRAKGFNMRILYYSRTRKSQAEKELGAEYRPLEEVLKESDFVILAVPLTKETMYMINEERLKLMKPTAILVNIARGKVVDTKALIKALKEGWIAGAGLDVFEEEPYYNEELFSLDNVVLTPHIGSATFEAREAMAELVARNLIAFKRGEIPPTLVNKEVIKIRKPGFNEQ,not soluble
5,MGSDKIHHHHHHMFKSTLNSIIRRPLKGFQLLRGADSSNTRPQSPRASARDVTEKQILRTPSAPTAIPLREIIYRVPSLFPRPLEDSVKDFRDFIKNEDAFQTELLKTLPFYPTPSESKTARLIRTVVDDEGNYINEFCIRPRKTSVPEADLKHLVFIHGYGAGLGFFIKNFEDIPLLDNEWCIHAIDLPGYGFSSRPKFPFEYPRDNIHSVQDWFHERIHTWFSKRNLLNRPEKNIVMAHSLGSYLMALYLQKYKESPSFKKLILCSPAGVSYRDFNNTASEVEKWKPPPWWYVKLWDRNISPFTLVRNFRQLGSKITSGWSYRRFKHILNGDPEQSKRFEALHRYAYAIFNKRGSGEYLLSFALKCGGEPRLSLEQQLFDGKKSDILKNSNCDWLWLYGDDDWMDVNGGLRVSRFLKEKLKQKSNVIIVPHSGHHLYLDNYKFFNNILTKEMQKI,not soluble
6,MGSSHHHHHHSSGLVPRGSHMSRVTVLQSQLPAYNRLKTPYESELIATVKKLTTPGKGLLAADESIGSCTKRFQPIGLSNTEEHRRQYRALMLEAEGFEQYISGVILHDETVGQKASNGQTFPEYLTARGVVPGIKTDMGLCPLLEGAEGEQMTEGLDGYVKRASAYYKKGCRFCKWRNVYKIQNGTVSESAVRFNAETLARYAILSQMSGLVPIVEPEVMIDGKHDIDTCQRVSEHVWREVVAALQRHGVIWEGCLLKPNMVVPGAESGKTAAPEQVAHYTVMTLARTMPAMLPGVMFLSGGLSEVQASEYLNAINNSPLPRPYFLSFSYARALQSSALKAWGGKESGLAAGRRAFLHRARMNSMAQLGKYKRSDDDASSSSLYVKGNTY,soluble
7,LHPEPQSQHELGNVFLKFKDKFCVYEEYCSNHEKALRLLVELNKIPTVRAFLLSCMLLGGRKTTDIPLEGYLLSPIQRICKYPLLLKELAKRTPGKHPDHPAVQSALQAMKTVCSNINETKRQMEKLEALEQLQSHIEGWEGSNLTDICTQLLLQGTLLKISAGNIQERAFFLFDNLLVYCKRKSRVTGSKKSTKRTKSINGSLYIFRGRINTEVMEVENVEDGTADYHSNGYTVTNGWKIHNTAKNKWFVCMAKTAEEKQKWLDAIIREREQRESLKLGMERDAYVMIAEKGEKLYHMMMNKKVNLIKDRRRKLSTVPKCFLGNEFVAWLLEIGEISKTEEGVNLGQALLENGIIHHVSDKHQFKNEQVMYRFRYDDGTYKARSELEDIMSKGVRLYCRLHSLYTPVIKDRDYHLKTYKSVLPGSKLVDWLLAQGDCQTREEAVALGVGLCNNGFMHHVLEKSEFRDESQYFRFHADEEMEGTSSKNKQLRNDFKLVENILAKRLLILPQEEDYGFDIEEKNKAVVVKSVQRGSLAEVAGLQVGRKIYSINEDLVFLRPFSEVESILNQSFCSRRPLRLLVATKAKEIIKIPDQPDTLCFQIRGAAPPYVYAVGRGSEAMAAGLCAGQCILKVNGSNVMNDGAPEVLEHFQAFRSRREEALGLYQWIYHTHEDAQEARASQEASTEDPSGEQAQEEDQADSAFPLLSLGPRLSLCEDSPMVTLTVDNVHLEHGVVYEYVSTAGVRCHVLEKIVEPRGCFGLTAKILEAFAANDSVFVENCRRLMALSSAIVTMPHFEFRNICDTKLESIGQRIACYQEFAAQLKSRVSPPFKQAPLEPHPLCGLDFCPTNCHINLMEVSYPKTTPSVGRSFSIRFGRKPSLIGLDPEQGHLNPMSYTQHCITTMAAPSWKCLPAAEGDPQGQGLHDGSFGPASGTLGQEDRGLSFLLKQEDREIQDAYLQLFTKLDVALKEMKQYVTQINRLLSTITEPTSGGSCDTSLAEEASSLPLVSEESEMDRSDHGGIKKVCFKVAEEDQEDSGHDTMSYRDSYSECNSNRDSVLSYTSVRSNSSYLGSDEMGSGDELPCDMRIPSDKQDKLHGCLEHLFNQVDSINALLKGPVMSRAFEETKHFPMNHSLQAIHPFTHSATHAPINPSVHPPLHPTTHLPSIHPPTHPPTHPSIYPPTHPSIHLLVCPSIHPSLLPSVCPLFHPSTHSFIIYLSIHASVHPVNNFPEPACARPCTGHWRP,soluble
8,MTKRIEIKPATAADQAALAEIYLVDRQQDFPWVTDPQLQDFNEDSRGEFVLVAWIDGQRAGFCSLYRLANFIHLLFVAPDFRHLKVGERLLTEMRQYATEPLTLKCVMANENALRFYAQVGFRIVK,not soluble
9,MTLDESCKILNIEESKGDLNMDKINNRFNYLFEVNDKEKGGSFYLQSKVYRAAERLKWELAQREK,soluble
10,SGLYRIRVSTGASLYAGSNNQVQLWLVGQHGEAALGKRLWPARGKETELKVEVPEYLGPLLFVKLRKRHLLKDDAWFCNWISVQGPGAGDEVRFPCYRWVEGNGVLSLPEGTGRTVGEDPQGLFQKHREEELEERRKLYRWGNWKDGLILNMAGAKLYDLPVDERFLEDKRVDFEVSLAKGLADLAIKDSLNVLTCWKDLDDFNRIFWCGQSKLAERVRDSWKEDALFGYQFLNGANPVVLRRSAHLPARLVFPPGMEELQAQLEKELEGGTLFEADFSLLDGIKANVILCSQQHLAAPLVMLKLQPDGKLLPMVIQLQLPRTGSPPPPLFLPTDPPMAWLLAKCWVRSSDFQLHELQSHLLRGHLMAEVIVVATMRCLPSIHPIFKLIIPHLRYTLEINVRARTGLVSDMGIFDQIMSTGGGGHVQLLKQAGAFLTYSSFCPPDDLADRGLLGVKSSFYAQDALRLWEIIYRYVEGIVSLHYKTDVAVKDDPELQTWCREITEIGLQGAQDRGFPVSLQARDQVCHFVTMCIFTCTGQHASVHLGQLDWYSWVPNAPCTMRLPPPTTKDATLETVMATLPNFHQASLQMSITWQLGRRQPVMVAVGQHEEEYFSGPEPKAVLKKFREELAALDKEIEIRNAKLDMPYEYLRPSVVENSVAI,soluble
11,MSLRVLGIETSCDETGIAIYDDEKGLLANQLYSQVKLHADYGGVVPELASRDHVRKTVPLIQAALKESGLTAKDIDAVAYTAGPGLVGALLVGATVGRSLAFAWDVPAIPVHHMEGHLLAPMLEDNPPEFPFVALLVCGGHTQLISVTGIGQYELLGESIDDAAGEAFDKTAKLLGLDYPGGPLLSKMAAQGTAGRFVFPRPMTDRPGLDFSFSGLKTFAANTIRDNGTDDQTRADIARAFEDAVVDTLMIKCKRALDQTGFKRLVMAGGVSANRTLRAKLAEMMKKRRGEVFYARPEFCTDNGAMIAYAGMVRFKAGATADLGVSVRPRWPLAELPAEGHHHHHH,soluble
12,MTAVETKKQYLTVFKEDGIAEIHLHINKSNSYDLEFYKEFNAAIDDIRFDPDIKVVIVMSDVPKFFSAGADINFLRSADPRFKTQFCLFCNETLDKIARSPQVYIACLEGHTVGGGLEMALACDLRFMGDEAGKIGLPEVSLGVLAGTGGTQRLARLIGYSRALDMNITGETITPQEALEIGLVNRVFPQAETRERTREYARKLANSATYAVSNIKLAIMNGKEMPLNVAIRYEGELQNLLFRSEDAKEGLSAFLEKRQPNWKGI,soluble
13,MKDKYLIIDGYNMIGQSPELGKIAKDNLQEAREQLLDAIANYNAVVADEIVCVFDAYEQSGIEREYIYHGVKTVFTKEKETADSYIERYVYNLYNKHTTHITVVTSDMSEQHAIFGAGAYRVSSREMWRDLRENEITVSKSLDDFTESKPRTRISLSNDVLAEFEKIRRGNHNKDLEHHHHHH,not soluble
14,MAHHHHHHMLPHSVPTSPHQERDRPLEQMTDEELRRELVMLIRTNAILAEESAGLQADISALCEESVRFQQSTEIEEDKVTNQLLRRLQSEEVQKHRFHHQILCEEKARRKIMDQITQVRQQMELEKQLEQEQEVQRMELQRKLIDVVNKKIEVERQLLEERRVQLEALTTKLASIKEGSLAAKSKVDGAVGSRGTQGPSASSQQCQSGTANMTHESPAAAAAAAVAASSQPPPVKTETVPSSVDLPASDVAGDDTHGTIIRLEEQLNRLLEQHAAATQASATNESLCTELGRNLETIQQAASVDRARTLKLKEELQETKRRVAVLEQRAAVGTAYAASDDSSDLPTPSVSSLYDDKRRESLLNCHQRYPSSCVPPSCSASEAGEDTRSV,not soluble
15,EKMTRDEIAYMLTNSEETLDADEIEMLQGVFSLDELMAREVMVPRTDAFMVDIQDDSQAIIQSILKQNYSRIPVYDGDKDNVIGIIHTKSLLKAGFVDGFDNIVWKRILQDPLFVPETIFVDDLLKELRNTQRQMAILLDEYGGMAGLVTLEDLLEEIVGEID,not soluble
16,MKIALIGATGHVGHYFLNEALQRGHAVTALVRDPSKLAARDGLCVVQADVSDPAQVASAVAGHEVVISAFNGGWGSADLRARHAAGSQAILDGVKRSGVPRLLVLGGAGSLEIAPGQRLVDSPEFPEQWKQGALGAADALDQLRGEQRLDWVFLSPAMLLEPGQRSGKFRLGGDQVLFDAKGESRISLEDLAVAMLDEAEQPRHHRQRFTVAYLEHHHHHH,soluble
17,MSLRSVVSFNEGWSFHEGFGQRLLENFDAAKPVSLPHTAVELPFNYFDEKSYQRAFTYQKVLRWLPEFEGREVSLVFDAAMADSVVYLNGEEITAHKDGYTPFEARLTGKLLKGENLVTVKIDGSENPAIPPFGGRIDYLTYAGIYRDVWLKVTDPVSIRNLKIETADVLAPHKSASIRVDLANPEGRSFSATLTAALKQADGTVIATAATETIGNRTTLSLGGLTGITLWDITNPTLYEVTVELRTEHGSDRLSTRFGFRTAEFTPEGFLLNGKPLKLRGLNRHQAFPYVGYAAGRSAQERDADIMKSVLKCNIVRTSHYPQSKWFLDRCDAIGLLVFEEIPGWQHIGDADWQKESIENVRRMIERDWNHPSIIIWGVRINESQDSHDFYAETNRLARELDSTRQTGGVRYITESELLEDVYTMNDFILGNEELPGANRPRTVLRGQQENTGLSRKVPYLITEFNGHMHPTKIYDQEQRQAEHVRRHLEVLNAAYGDPDISGAIGWCMFDYNTHKDFGSGDRVCYHGVMDMFREPKFAAYAYISQCEPSEEIVMKPVTFWARGERNIGGVLPLIILTNCDEVELQYGALSKRVGPDRENYPHLPHPPVVLDHRHFTADELGTWGLEWIDGALTGFIAGEAVVSLNLAADPLPTTLEMVADSSTLKTRERDSTRVIIRALDQCGQRLPFMNDSISLKVHGPARIVGPTNVPLQGGTSGFWLEATGLVGEITVEAVSSRFAPVTLNVTAVAEGHHHHHH,soluble
